One block for each binder: values may come before it.
Key:
[1] = molecular target: Yes associated protein 1 (YAP) (endogenous, from mouse dorsal skin) (mouse, UniProt P46938 1-488, limits assumed); assay: co-immunoprecipitation of endogenous proteins from mouse skin, Western blot
[2] = molecular target: T1, Recombinant human α-Catenin protein
T1 chain: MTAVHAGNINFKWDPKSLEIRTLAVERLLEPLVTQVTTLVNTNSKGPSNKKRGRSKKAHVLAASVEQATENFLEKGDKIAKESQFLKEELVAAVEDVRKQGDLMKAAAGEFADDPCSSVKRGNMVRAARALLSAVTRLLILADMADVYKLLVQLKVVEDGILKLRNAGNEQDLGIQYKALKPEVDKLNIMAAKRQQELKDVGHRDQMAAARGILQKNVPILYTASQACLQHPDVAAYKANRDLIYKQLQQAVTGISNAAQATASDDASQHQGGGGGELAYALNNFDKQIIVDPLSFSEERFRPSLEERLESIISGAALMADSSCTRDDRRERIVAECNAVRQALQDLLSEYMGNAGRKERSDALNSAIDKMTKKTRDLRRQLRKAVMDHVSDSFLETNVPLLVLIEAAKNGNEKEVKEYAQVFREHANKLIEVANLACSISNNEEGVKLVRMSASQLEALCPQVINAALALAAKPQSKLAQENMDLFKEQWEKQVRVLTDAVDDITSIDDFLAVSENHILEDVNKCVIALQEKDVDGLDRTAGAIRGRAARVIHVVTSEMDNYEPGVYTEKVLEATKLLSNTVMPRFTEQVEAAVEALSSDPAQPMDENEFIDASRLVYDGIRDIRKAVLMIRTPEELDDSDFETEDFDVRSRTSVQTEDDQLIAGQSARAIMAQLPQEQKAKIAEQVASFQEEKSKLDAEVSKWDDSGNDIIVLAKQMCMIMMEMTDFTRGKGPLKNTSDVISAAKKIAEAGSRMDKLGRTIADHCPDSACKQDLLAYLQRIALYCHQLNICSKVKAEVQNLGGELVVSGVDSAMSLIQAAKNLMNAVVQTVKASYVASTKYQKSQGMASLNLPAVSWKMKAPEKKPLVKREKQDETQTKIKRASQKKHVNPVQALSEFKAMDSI

[3] = molecular target: recombinant mouse H3/H4 heterodimer, P62806
[4] = molecular target: T2, α-Catenin (endogenous, from HaCaT cells), P35221
T2 chain: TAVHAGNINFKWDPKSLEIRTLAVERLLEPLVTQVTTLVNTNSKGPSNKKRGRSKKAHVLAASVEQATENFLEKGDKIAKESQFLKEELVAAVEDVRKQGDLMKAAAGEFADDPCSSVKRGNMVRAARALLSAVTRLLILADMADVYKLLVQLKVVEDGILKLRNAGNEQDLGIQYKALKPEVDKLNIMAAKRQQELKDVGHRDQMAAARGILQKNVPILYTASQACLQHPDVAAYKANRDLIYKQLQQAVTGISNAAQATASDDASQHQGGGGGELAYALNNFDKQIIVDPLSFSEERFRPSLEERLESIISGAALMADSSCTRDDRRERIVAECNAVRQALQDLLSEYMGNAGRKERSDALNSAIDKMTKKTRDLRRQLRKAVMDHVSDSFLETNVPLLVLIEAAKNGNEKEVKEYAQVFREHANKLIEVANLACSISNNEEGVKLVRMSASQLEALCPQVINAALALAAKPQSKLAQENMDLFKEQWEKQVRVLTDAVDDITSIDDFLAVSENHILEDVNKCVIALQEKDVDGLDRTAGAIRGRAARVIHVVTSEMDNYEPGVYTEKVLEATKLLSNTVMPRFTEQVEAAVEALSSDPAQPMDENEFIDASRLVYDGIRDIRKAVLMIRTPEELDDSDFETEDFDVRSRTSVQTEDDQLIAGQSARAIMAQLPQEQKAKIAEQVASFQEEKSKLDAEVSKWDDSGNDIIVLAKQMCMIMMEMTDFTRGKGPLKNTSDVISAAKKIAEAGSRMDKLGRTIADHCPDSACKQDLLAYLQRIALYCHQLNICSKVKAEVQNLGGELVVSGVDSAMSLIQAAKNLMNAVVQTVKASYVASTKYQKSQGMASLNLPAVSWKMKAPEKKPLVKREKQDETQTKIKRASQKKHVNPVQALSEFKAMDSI

Yes associated protein 1 (YAP) (endogenous, from mouse dorsal skin), sequence (P46938 whole entry): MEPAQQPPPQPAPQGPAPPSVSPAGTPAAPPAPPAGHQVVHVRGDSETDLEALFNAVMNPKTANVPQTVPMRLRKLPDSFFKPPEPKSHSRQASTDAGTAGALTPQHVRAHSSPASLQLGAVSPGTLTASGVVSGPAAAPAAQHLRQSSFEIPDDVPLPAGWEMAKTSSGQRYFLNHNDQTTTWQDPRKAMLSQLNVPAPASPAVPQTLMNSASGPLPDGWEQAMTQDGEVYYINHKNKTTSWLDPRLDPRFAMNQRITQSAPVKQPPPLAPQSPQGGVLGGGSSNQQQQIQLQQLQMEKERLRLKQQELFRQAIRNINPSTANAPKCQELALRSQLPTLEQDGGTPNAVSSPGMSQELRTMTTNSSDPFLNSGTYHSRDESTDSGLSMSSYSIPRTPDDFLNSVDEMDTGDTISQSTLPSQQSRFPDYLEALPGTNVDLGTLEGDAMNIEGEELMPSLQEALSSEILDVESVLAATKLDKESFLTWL

binding result [1]: no binding
B1: activated (cleaved) Caspase-3 (endogenous, from mouse dorsal skin) (enzyme, UniProt P70677 29-277, looked up)
chain: SGIYLDSSYKMDYPEMGICIIINNKNFHKSTGMSSRSGTDVDAANLRETFMGLKYQVRNKNDLTREDILELMDSVSKEDHSKRSSFVCVILSHGDEGVIYGTNGPVELKKLTSFFRGDYCRSLTGKPKLFIIQACRGTELDCGIETDSGTDEEMACQKIPVEADFLYAYSTAPGYYSWRNSKDGSWFIQSLCSMLKLYAHKLEFMHILTRVNRKVATEFESFSLDSTFHAKKQIPCIVSMLTKELYFYH
notes: also called CP3

B2: recombinant human active caspase-3 (protein)
chain: SGISLDNSYKMDYPEMGLCIIINNKNFHKSTGMTSRSGTDVDAANLRETFRNLKYEVRNKNDLTREEIVELMRDVSKEDHSKRSSFVCVLLSHGEEGIIFGTNGPVDLKKITNFFRGDRCRSLTGKPKLFIIQACRGTELDCGIETDSGVDDDMACHKIPVEADFLYAYSTAPGYYSWRNSKDGSWFIQSLCAMLKQYADKLEFMHILTRVNRKVATEFESFSFDATFHAKKQIPCIVSMLTKELYFYH
in vitro cleavage assay, SDS-electrophoresis and Coomassie staining [2]: a dramatic decrease in the levels of full length α-Catenin (FIG. 4M) (Caspase-3 cleaved α-Catenin), giving rise to two novel bands at a molecular weight of ˜14 kDa and ˜17 kDa | in vitro cleavage assay, Coomassie staining [3]: Caspase-3 was not able to cleave either histones H2A/H2B or H3/H4 | cleavage in HaCaT protein lysate, Western blot with antibodies for the C and N termini of α-Catenin [4]: addition of cleaved Caspase-3 results in a major decrease in the level of full-length α-Catenin | release of 14-3-3 from α-Catenin pull-down complexes after in vitro cleavage, Western blot [4]: Caspase-3-mediated cleavage facilitates the release of 14-3-3 from α-Catenin
